From publication PMC3815950 (Microbial biotechnology, 2009)
Where “and” joins values, the source holds several entries; their conditions need not be identical. Equal values may be shown once.

Tests used:
[1] = substrate: [H][C@]12SCC(COC(C)=O)=C(C(=O)O)N1C(=O)[C@H]2NC(=O)CCC[C@@H](N)C(=O)O; test: acetate release, Michaelis-Menten; assay type: biochemical, Thermotoga maritima; details: 50 mM sodium phosphate pH 6.5, 60 °C
[2] = target: the molecule itself; test: SEC

B1: Thermotoga maritima acetyl xylan esterase AxeA (enzyme)
chain: MAFFDLPLEELKKYRPERYEEKDFDEFWEETLAESEKFPLDPVFERMESHLKTVEAYDVTFSGYRGQRIKGWLLVPKLEEEKLPCVVQYIGYNGGRGFPHDWLFWPSMGYICFVMDTRGQGSGWLKGDTPDYPEGPVDPQYPGFMTRGILDPRTYYYRRVFTDAVRAVEAAASFPQVDQERIVIAGGSQGGGIALAVSALSKKAKALLCDVPFLCHFRRAVQLVDTHPYAEITNFLKTHRDKEEIVFRTLSYFDGVNFAARAKIPALFSVGLMDNICPPSTVFAAYNYYAGPKEIRIYPYNNHEGGGSFQAVEQVKFLKKLFEKG
Question: Which results are given for B1?
Answer: Km [1]: 4.18 ± 0.97 mM; Vmax [1]: 19.2 µmol/min/mg; kcat [1]: 11.8 s⁻¹; kcat/Km [1]: 2830 M⁻¹ s⁻¹; stoichiometry N [2]: 6 and 2
